The series deals with MS2 coat protein. Put plainly: apparent KD of MS2 coat protein; designed switch direction (-1 OFF switch, 1 ON switch): -1; higher = weaker reporter binding. The essentials:
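Stalled E. coli RNA polymerase transcribed designed RNA switches on Illumina chips, which were then titrated with SNAP-549-labelled MS2 coat protein, doubling from 0.7 or 1.5 nM to 3 µM. Steps lasted from 0.8–1.5 h at the lowest concentration to 10–20 min at the highest. The apparent KD is each design's median over clusters of curve-fitted normalised fluorescence.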

The mark [1] stands for this setting: input ligand: microRNA oligo, concentration not stated.
[2] abbreviates: Eterna round: R95, input ligand: FMN 200 uM.
The mark [3] stands for this setting: Eterna round: R95, input ligand: microRNA oligo, concentration not stated.
Where [4] appears, read: Eterna round: R95, input ligand: none.

In the case of “AAACGACAUGAGGAUCACCCAUGUGGCCCUUAGACUCGUAUCGAGGAUAUCCAGGGCCGGGCCGUGGAGAAGGCGAAUUAAAAU [Cetele] (Eterna round: R96, puzzle: Exclusion NG 3)”, the “apparent KD of MS2 coat protein” value was 63.8 nM (input ligand: FMN 200 uM), 28.8 nM under setting [1] and 43.6 nM (input ligand: none).
Consider “AAACGCUGAGGAUAUGCGCCGAGGCACAUGAGGAUCACCCAUGUGACCUCACUGCCUUGAGCAGAAGGCAGAAAAU [Vezaatinxe] (puzzle: Exclusion 5)”, for which the “apparent KD of MS2 coat protein” value runs as follows: under setting [2], 137 nM; under setting [3], 56.4 nM; under setting [4], 53 nM.
As for “AAACGGCAAUAAGGAUAUGCUUACCUGGGUCGUCUUCAAACAUGAGGAUCACCCAUGUAGUCGACGCAGAAGGUAUUCAAAGCC [ExNG2 first] (Eterna round: R96, puzzle: Exclusion NG 2)”, the “apparent KD of MS2 coat protein” value turned out to be 13.5 nM (input ligand: FMN 200 uM), 10.4 nM under setting [1] and 12.8 nM (input ligand: none).
Consider “AAACGGCGGAUCGUGGCUUUUUGCUCGUCUUGUGCUACAACAUGAGGAUCACCCAUGUAGAGGUGAUCCGUUGUAAA [Grok-var2-18 mod JAL] (puzzle: Sensor v3, turn-off variant 2)”, for which the “apparent KD of MS2 coat protein” value reads like this: under setting [2], 28 nM; under setting [3], 17.1 nM; under setting [4], 38.3 nM.
Turning to “AAACGGGACUGAGGAUAUUCGUUCGAACACGAAGAAGAAGGUAGUGUCAGGGACAUGAGGAUCACCCAUGUGAACUCAGUCCCA [Erinle] (Eterna round: R96, puzzle: Exclusion NG 1)”, the “apparent KD of MS2 coat protein” value reads like this: (input ligand: FMN 200 uM) 32.5 nM; under setting [1], 21 nM; (input ligand: none) 32.3 nM.
For “AAACUGCAUGUGAGGAUAUGCACCAGCUAAGCCGGGCAGAAGGCACAUGAGGAUCACCCAUGUCAUCCUAUUGC [Latibibe] (puzzle: Brourd's mod of Exclusion 4)”, the “apparent KD of MS2 coat protein” value runs as follows: under setting [2], 26.5 nM; under setting [3], 11.6 nM; under setting [4], 14.4 nM.
Turning to “AAAGAACAUGAGGAUCACCCAUGUAAGGAUAUGCAAAGAAAGAAAGAAGAAAGAGAAAGCAGAAGGUACAAGAA [JR_Exclu1_Sub071] (puzzle: Exclusion 1)”, the “apparent KD of MS2 coat protein” value came to 34.4 nM under setting [2], 44.1 nM under setting [3] and 36.8 nM under setting [4].
As to “AAAGAACUAGGAUAUACAUGAGGAUCACCCAUGUGCAGCUUAACGGCUCACACCUUAUGUAGAAGGAGUGACCG [Riorenar] (puzzle: Exclusion 3)”, under setting [3], the “apparent KD of MS2 coat protein” value amounted to 16 nM.
Consider “AAAGAUCAGGUGAGGAUAUACAUAUCGAAAGAUAUGUAGAAGGCACAUGAGGAUCACCCAUGUAUAAGGUUACC [Alacar 2] (Eterna round: R97, puzzle: Brourd's mod of Exclusion 4)”, for which the “apparent KD of MS2 coat protein” value (input ligand: FMN 200 uM) amounted to 313 nM and the “apparent KD of MS2 coat protein” value (input ligand: none) is 52.1 nM.
With “AAAGGGCAAGCAUGAUCCCACAUGAGGAUCACCCAUGUGUUCGUCUUAUAGGCUGCUGAGGCUUUUGCCUCGGUGGC [LRO Sensor-off var1-04 loose mod of D91 from Mat747] (Eterna round: R97, puzzle: Sensor, turn-off variant 1)”, the “apparent KD of MS2 coat protein” value runs as follows: (input ligand: FMN 200 uM) 484 nM; (input ligand: none) 567 nM.
Regarding “AAAUAACAAGCAAAAAACCACAUGAGGAUCACCCAUGUAAAGGGUGAAGUUCGCACCCAAAAAUAAAAUAAAAAAUA [Mat - Sensor v2 - Eli mod - 173] (Eterna round: R96, puzzle: Sensor v2, turn-off variant)”, the “apparent KD of MS2 coat protein” value runs as follows: (input ligand: FMN 200 uM) 29.1 nM; under setting [1], 75 nM; (input ligand: none) 28.3 nM.
As for “AAAUAACAAGCGAGAUCCUACAUGAGGAUCACCCAUGUGCUCGUCUUAUAAAGUACUAUCACGAAAGUGAUAGUACA [Sensor 3, v1 - 13] (puzzle: Sensor v3, turn-off variant 1)”, the “apparent KD of MS2 coat protein” value was 16.4 nM under setting [2], 50.8 nM under setting [3] and 16.3 nM under setting [4].

These data come from the supplement of paper PMC9170038.
